± gives the standard deviation of the averaged measurements.
Assay: total protein half-life in vivo (active degradation + dilution); higher = more stable protein
[1] = E. coli NCM3722 delta-clpP delta-lon delta-hslV, growth: N-lim chemostat, doubling time 6 h
[2] = E. coli NCM3722 delta-clpP, growth: N-lim chemostat, doubling time 6 h
[3] = E. coli NCM3722 delta-hslV, growth: N-lim chemostat, doubling time 6 h
[4] = E. coli NCM3722 delta-lon, growth: N-lim chemostat, doubling time 6 h
[5] = E. coli NCM3722 delta-smpB, growth: N-lim chemostat, doubling time 6 h
[6] = wild type E. coli NCM3722, growth: C-lim chemostat, doubling time 12 h
[7] = wild type E. coli NCM3722, growth: N-lim chemostat, doubling time 6 h
[8] = wild type E. coli NCM3722, growth: N-lim chemostat, doubling time 12 h
[9] = wild type E. coli NCM3722, growth: P-lim chemostat, doubling time 6 h
[10] = wild type E. coli NCM3722, growth: P-lim chemostat, doubling time 12 h
[11] = wild type E. coli NCM3722, growth: C-lim chemostat, doubling time 3 h
[12] = wild type E. coli NCM3722, growth: C-lim chemostat, doubling time 6 h

Sequence	total protein half-life in vivo [1] [h]	total protein half-life in vivo [2] [h]	total protein half-life in vivo [3] [h]	total protein half-life in vivo [4] [h]	total protein half-life in vivo [5] [h]	total protein half-life in vivo [6] [h]	total protein half-life in vivo [7] [h]	total protein half-life in vivo [8] [h]	total protein half-life in vivo [9] [h]	total protein half-life in vivo [10] [h]	total protein half-life in vivo [11] [h]	total protein half-life in vivo [12] [h]
MTYAVEFDNVSRLYGDVRAVDGVSIAIKDGEFFSMLGPSGSGKTTCLRLIAGFEQLSGGAISIFGKPASNLPPWERDVNTVFQDYALFPHMSILDNVAYGLMVKGVNKKQRHAMAQEALEKVALGFVHQRKPSQLSGGQRQRVAIARALVNEPRVLLLDEPLGALDLKLREQMQLELKKLQQSLGITFIFVTHDQGEALSMSDRVAVFNNGRIEQVDSPRDLYMRPRTPFVAGFVGTSNVFDGLMAEKLCGMTGSFALRPEHIRLNTPGELQANGTIQAVQYQGAATRFELKLNGGEKLLVSQANMTGEELPATLTPGQQVMVSWSRDVMVPLVEER	6.01 ± 0.38	6.427 ± 0.038	5.58 ± 0.28	4.65 ± 1.3	5.64 ± 0.085	10.2 ± 0.023	4.78 ± 0.27	10.4 ± 0.55	4.68	10.8 ± 1.8	–	–
MTYQQAGRIAVLKRILGWVIFIPALISTLISLLKFMNTRQENKEGINAVMLDFTHVMIDMMQANTPFLNLFWYNSPTPNFNGGVNVMFWVIFILIFVGLALQDSGARMSRQARFLREGVEDQLILEKAKGEEGLTREQIESRIVVPHHTIFLQFFSLYILPVICIAAGYVFFSLLGFI	5.41 ± 0.081	5.2 ± 0.35	5.42 ± 0.091	5.94	6.11 ± 1.1	13.5 ± 0.8	5.62 ± 0.27	9.96 ± 2.3	5.46 ± 0.11	12 ± 0.18	2.86 ± 0.074	–
MVAVRSAHINKAGEFDPEKWIASLGITSQKSCECLAETWAYCLQQTQGHPDASLLLWRGVEMVEILSTLSMDIDTLRAALLFPLADANVVSEDVLRESVGKSVVNLIHGVRDMAAIRQLKATHTDSVSSEQVDNVRRMLLAMVDDFRCVVIKLAERIAHLREVKDAPEDERVLAAKECTNIYAPLANRLGIGQLKWELEDYCFRYLHPTEYKRIAKLLHERRLDREHYIEEFVGHLRAEMKAEGVKAEVYGRPKHIYSIWRKMQKKNLAFDELFDVRAVRIVAERLQDCYAALGIVHTHYRHLPDEFDDYVANPKPNGYQSIHTVVLGPGGKTVEIQIRTKQMHEDAELGVAAHWKYKEGAAAGGARSGHEDRIAWLRKLIAWQEEMADSGEMLDEVRSQVFDDRVYVFTPKGDVVDLPAGSTPLDFAYHIHSDVGHRCIGAKIGGRIVPFTYQLQMGDQIEIITQKQPNPSRDWLNPNLGYVTTSRGRSKIHAWFRKQDRDKNILAGRQILDDELEHLGISLKEAEKHLLPRYNFNDVDELLAAIGGGDIRLNQMVNFLQSQFNKPSAEEQDAAALKQLQQKSYTPQNRSKDNGRVVVEGVGNLMHHIARCCQPIPGDEIVGFITQGRGISVHRADCEQLAELRSHAPERIVDAVWGESYSAGYSLVVRVVANDRSGLLRDITTILANEKVNVLGVASRSDTKQQLATIDMTIEIYNLQVLGRVLGKLNQVPDVIDARRLHGS [P0AG20]	5.7 ± 0.41	5.46 ± 0.31	4.65 ± 0.24	4.99 ± 0.054	4.36 ± 0.23	8.04 ± 0.43	4.74 ± 0.17	7.78 ± 0.22	4.8 ± 0.23	9.13 ± 0.26	2.68 ± 0.21	4.87 ± 0.11
MVDQVKVVADDQAPAEQSLRRNLTNRHIQLIAIGGAIGTGLFMGSGKTISLAGPSIIFVYMIIGFMLFFVMRAMGELLLSNLEYKSFSDFASDLLGPWAGYFTGWTYWFCWVVTGMADVVAITAYAQFWFPDLSDWVASLAVIVLLLTLNLATVKMFGEMEFWFAMIKIVAIVSLIVVGLVMVAMHFQSPTGVEASFAHLWNDGGWFPKGLSGFFAGFQIAVFAFVGIELVGTTAAETKDPEKSLPRAINSIPIRIIMFYVFALIVIMSVTPWSSVVPEKSPFVELFVLVGLPAAASVINFVVLTSAASSANSGVFSTSRMLFGLAQEGVAPKAFAKLSKRAVPAKGLTFSCICLLGGVVMLYVNPSVIGAFTMITTVSAILFMFVWTIILCSYLVYRKQRPHLHEKSIYKMPLGKLMCWVCMAFFVFVVVLLTLEDDTRQALLVTPLWFIALGLGWLFIGKKRAAELRK [P0AAE0]	4.28 ± 0.25	3.4 ± 0.0052	3.26 ± 0.38	2.95 ± 0.22	3.33 ± 0.25	8.36 ± 0.32	3.26 ± 0.58	5 ± 0.22	4.74 ± 0.37	6.57 ± 0.66	3.28 ± 0.5	–
MVDSKKRPGKDLDRIDRNILNELQKDGRISNVELSKRVGLSPTPCLERVRRLERQGFIQGYTALLNPHYLDASLLVFVEITLNRGAPDVFEQFNTAVQKLEEIQECHLVSGDFDYLLKTRVPDMSAYRKLLGETLLRLPGVNDTRTYVVMEEVKQSNRLVIKTR [P0ACJ0]	6.5 ± 0.13	6.63 ± 0.76	6.65 ± 0.079	7.54 ± 0.57	6.08 ± 0.29	10.8 ± 0.19	5.82 ± 0.65	12 ± 0.67	5.73 ± 0.45	14 ± 0.69	3.27 ± 0.28	6.23 ± 0.33
MVDTTQTTTEKKLTQSDIRGVFLRSNLFQGSWNFERMQALGFCFSMVPAIRRLYPENNEARKQAIRRHLEFFNTQPFVAAPILGVTLALEEQRANGAEIDDGAINGIKVGLMGPLAGVGDPIFWGTVRPVFAALGAGIAMSGSLLGPLLFFILFNLVRLATRYYGVAYGYSKGIDIVKDMGGGFLQKLTEGASILGLFVMGALVNKWTHVNIPLVVSRITDQTGKEHVTTVQTILDQLMPGLVPLLLTFACMWLLRKKVNPLWIIVGFFVIGIAGYACGLLGL	6.27 ± 0.37	6.2 ± 0.14	5.93 ± 0.077	6.13 ± 0.11	6.28 ± 0.28	13.8 ± 2.9	6.51 ± 0.75	12.8 ± 1.1	6.24 ± 0.064	13.56 ± 0.072	3.168 ± 0.014	6.21 ± 0.26
MVERTAVFPAGRHSLYAEHRYSAAIRSGDLLFVSGQVGSREDGTPEPDFQQQVRLAFDNLHATLAAAGCTFDDIIDVTSFHTDPENQFEDIMTVKNEIFSAPPYPNWTAVGVTWLAGFDFEIKVIARIPEQ	5.72 ± 0.59	4.29 ± 0.47	5.62 ± 1.5	5.45 ± 0.62	4.61 ± 0.57	11.5 ± 1.1	5.02 ± 0.087	8.83 ± 0.12	5.604 ± 0.05	12.1 ± 0.51	3.61	6.32

From the supplement of paper PMC11246515
